Where two headings read alike, the source gives them in different places. Blank lines part the entries; values can stand above or below the molecule they belong to. Where no end group is shown, it is not given here.
Tests used:
[1] = target: T1, FPRL1 (Homo sapiens, UniProt P25090); experiment: Receptor signaling (calcium mobilization) in L1.2-FPRL1 cells; type: cell-based; set-up: expressed in transfected cells; details: for calcium mobilization in the FPRL1 transfectant: L1.2 cells stably expressing human FPRL1, undigested; for Designation and FPRL1 Activity: SHAAGtide and truncated/other variants
T1 sequence (P25090 1-351): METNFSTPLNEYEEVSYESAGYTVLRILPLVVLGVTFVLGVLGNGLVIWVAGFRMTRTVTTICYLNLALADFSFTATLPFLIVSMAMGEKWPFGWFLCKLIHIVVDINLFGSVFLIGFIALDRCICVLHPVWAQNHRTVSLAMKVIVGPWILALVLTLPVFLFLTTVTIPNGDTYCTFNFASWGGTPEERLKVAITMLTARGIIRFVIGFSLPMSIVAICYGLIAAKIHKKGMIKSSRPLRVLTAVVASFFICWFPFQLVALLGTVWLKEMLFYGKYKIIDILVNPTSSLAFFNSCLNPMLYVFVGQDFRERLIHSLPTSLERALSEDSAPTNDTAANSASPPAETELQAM
Procedure: (§1) Receptor signaling assay. For individual measurements, cells were loaded for 45 min at room temperature with 2 μM indo-1/AM (Invitrogen, Carlsbad Calif.) in culture medium, then washed with 10 ml PBS and resuspended at 10^6 cells/ml in HBSS containing 0.1% BSA. Cytosolic calcium levels were determined using a Photon Technology International fluorimeter (excitation at 350 nm, ratio of dual emission at 400 and 490 nm). For measuring calcium dose responses, cells were analyzed with a Fluorometric Imaging Plate Reader 384 (FLIPR^384) (Molecular Devices, Sunnyvale, Calif.). Cells were loaded for 1 hr at 37° C. with 5 μM fluo-4 in HBSS with 0.1% BSA, then washed, transferred to black-wall 96-well plates, and subsequently excited at 505 nm with emission recorded at 530 nm with a standard protocol provided by the manufacture. Cells were stimulated with agonists 20 s after the monitoring of fluorescence began. Data were analyzed and plotted in arbitrary units of fluorescence using Prism. To ensure that responses were specific to FPRL1, we utilized a selective small-molecule antagonist of human FPRL1, generated by ChemoCentryx, which was optimized from a high throughput compound library screening approach.
Since FPRL1 has been reported to interact with low affinity and/or potency with a spectrum of potential pathogenic ligands of viral, bacterial and endogenous origin, we performed comparative functional analyses to determine the precise functional domain for the SHAAGtide (FIG. 14). SHAAGtides containing N-terminal and C-terminal truncations and extensions were synthesized, and potencies for receptor signaling in L1.2-FPRL1 cells were tested. […] After removal of the N-terminal amino acid (Met) from SHAAGtide, its potency is reduced approximately 10 fold. Removal of the first two N-terminal amino acids (Met-Leu) totally abolished SHAAGtide's activity on FPRL1. Conversely, removal of the C-terminal three amino residues (AAG) from SHAAGtide had no effect on its activity on FPRL1. Removal of the C-terminal six residues (LSHAAG) reduced the peptide's potency only 3-fold. Many other purported naturally-occurring FPRL1 ligands, including serum amyloid A (SAA), beta-amyloid protein 42, lipoxin A4 and the bacterial tripeptide fMLP were tested.

[2] = system: THP-1 cells; experiment: THP-1 chemotaxis assay; type: cell-based, human; details: for EC50: THP-1 cells
Procedure: Chemotaxis assay. L1.2-CCR1 transfectants, THP-1 cells, human monocytes and human neutrophils were collected by centrifugation and resuspended in HBSS containing 0.1% BSA. Chemotaxis assays were performed in 96-well ChemoTx® microplates (Neuroprobe, Rockville, Md.) as follows. Chemokines were added to the lower wells (final volume 29 μL), and 20 μL of cell suspension (5×10^6 cells/mL) was added to the polycarbonate filter (3 μm pore size for neutrophils, 5 μm for other 3 cell types). After incubation at 37° C. in the presence of 5% CO2 for 1 hr (neutrophils), 90 min (monocytes) or 2 h (THP-1 and L1.2-CCR1), cells were removed from the upper surface of the filter by scraping. Cells that migrated into the lower chamber were quantified by using the CyQuant cell proliferation assay kit (Molecular Probes, Eugene, Oreg.) and analyzed with a Tecan (Durham, N.C.) fluorimeter (excitation at 480 nm, emission at 530 nm). Data were analyzed and plotted in arbitrary units of fluorescence using Prism (GraphPad Software, San Diego, Calif.).

[3] = system: human neutrophils; experiment: Calcium mobilization in freshly isolated human neutrophils; type: cell-based
Procedure: (§2) Calcium Mobilization Assay. Cells were loaded for 1 hour with 2 μM indo-1/AM dye (Molecular Probes, Eugene, Oreg.) in culture medium, then washed with 10 ml PBS and resuspended at 10^6/ml in HBSS containing 1% FBS. Cytosolic calcium responses were determined using a Photon Technology International (Lawrenceville, N.J.) fluorimeter, with excitation at 350 nm and dual emission at 400 and 490 nm. Alternatively, cells were loaded with 5 μg/ml Fluo-4 AM dye (Molecular Probes, Eugene, Oreg.), then washed and analyzed on a Fluorometric Imaging Plate Reader 384 (FLIPR^384 Molecular Devices, Sunnyvale, Calif.), with 505 nm excitation and 530 nm emission.
as §1

[4] = target: T2, CCR1 (Homo sapiens, UniProt P32246); experiment: Calcium mobilization in murine L1.2 cells expressing human CCR1; type: cell-based; set-up: expressed in transfected cells; host or cells: murine L1.2 cells (G-418 selected transfectant); details: L1.2-CCR1 cells
T2 sequence (P32246 1-355): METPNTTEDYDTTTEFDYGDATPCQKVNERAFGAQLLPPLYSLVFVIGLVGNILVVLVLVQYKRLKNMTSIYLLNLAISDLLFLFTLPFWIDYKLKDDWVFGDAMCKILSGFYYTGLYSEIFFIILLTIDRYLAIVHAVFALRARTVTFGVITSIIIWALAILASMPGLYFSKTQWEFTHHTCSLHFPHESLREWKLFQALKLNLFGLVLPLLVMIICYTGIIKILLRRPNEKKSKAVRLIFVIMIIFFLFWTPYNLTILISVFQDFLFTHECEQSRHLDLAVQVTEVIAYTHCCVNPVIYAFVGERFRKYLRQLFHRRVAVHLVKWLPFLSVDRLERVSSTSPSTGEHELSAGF
Procedure: as §2, §1

[5] = system: human monocytes; experiment: Calcium mobilization in freshly isolated human monocytes; type: cell-based; details: undigested chemokine or peptide, 100 nM (CCL23β up to 250 nM)
Procedure: as §2, §1

[6] = target: T2, CCR1; experiment: Competition binding with 125I-MIP-1α on human monocytes; set-up: endogenous in cells; host or cells: human CD14+ monocytes from buffy coats
Procedure: Binding assay. Competition binding studies were conducted using monocytes, L1.2-CCR1 or L1.2-FPRL1 cells. Cells were incubated for 3 hr at 4° C. with ^125I-MIP-1α (final concentration ˜0.05 nM) or ^125I-WKYMVm (final concentration ˜0.01 nM) in buffer (25 mM HEPES, 140 mM NaCl, 1 mM CaCl2, 5 mM MgCl2 and 0.2% BSA, adjusted to pH 7.1) in the presence of increasing amounts of unlabeled chemokine. Reactions were aspirated onto PEI-treated GF/B glass filters using a cell harvester (Packard). Filters were washed twice (25 mM HEPES, 500 mM NaCl, 1 mM CaCl2, 5 mM MgCl2, adjusted to pH 7.1). Scintillant (MicroScint-10; 35 μl) was added to the filters and counted in a Packard Topcount scintillation counter. Data were analyzed and plotted using Prism (GraphPad Software, San Diego, Calif.).

[7] = undigested chemokine or peptide (100 nM)
[8] = 10 nM, undigested or recombinant chemokine
[9] = chemokine after digestion with PMN sup #1, read-out: EC50, chemotaxis
[10] = chemokine after digestion with chymase, read-out: EC50, chemotaxis
[11] = 10 nM input chemokine, after digestion with proteases and fluids

calcium mobilization in the FPRL1 transfectant [1]: unable to induce calcium mobilization
Molecule: 1-42 substrate peptide: synthetic 42-residue peptide consisting of the CCL23β N-terminal (1-24) and SHAAGtide (25-42) domains (MKVSVAALSCLMLVTALGSQARVTKDAETEFMMSKLPLENPV)

EC50 ([2]; 2 hr, recombinant undigested chemokine, read-out: EC50, chemotaxis): 0.5 nM
Molecule: CCL5/RANTES: traditional CCR1 ligand chemokine
calcium mobilization [3, 7]: not

Designation and FPRL1 Activity [1]: Low activity
Molecule: IGPQMTLSHAAG [CCXP4]

Designation and FPRL1 Activity [1]: Moderate
Molecule: LWRRKIGPQMTLSH [CCXP11]

Designation and FPRL1 Activity [1]: Moderate
Molecule: MLWRRKIGPQM [CCXP8]

Designation and FPRL1 Activity [1]: Moderate
Molecule: MLWRRKIGPQMT [CCXP5]

Designation and FPRL1 Activity [1]: High activity
Molecule: MLWRRKIGPQMTLSH [CCXP3]

Designation and FPRL1 Activity [1]: High activity
Molecule: MLWRRKIGPQMTLSHAAY [CCXP6]

Designation and FPRL1 Activity [1]: Low activity
Molecule: RRKIGPQMTLSHAAG [CCXP2]

Designation and FPRL1 Activity [1]: Low activity
Molecule: WRRKIG [CCXP10]

Designation and FPRL1 Activity [1]: Low activity
Molecule: WRRKIGPQM [CCXP9]

Designation and FPRL1 Activity [1]: Low activity
Molecule: WRRKIGPQMTLSHAAG [CCXP7]

calcium mobilization [4, 8]: substantially greater response
B1: CCL15Δ24/LKN-1: recombinant CCL15/MIP-1δ lacking the N-terminal 24 residues (68aa) (protein)
chain: SFHFAADCCTSYISQSIPCSLMKSYFETSSECSKPGVIFLTKKGRQVCAKPSGPGVQDCMKKLKPYSI
calcium mobilization [3, 7]: respond
calcium mobilization ([3]; undigested chemokine or peptide (100 nM), listed as CCL15 Δ24/leukotactin): only moderate calcium responses

EC50 [2, 9]: 0.15 nM
EC50 [2, 10]: 0.05 nM
EC50 ([2]; chemokine after digestion with synovial fluid, read-out: EC50, chemotaxis): 0.25 nM
fold decrease of EC50 by chymase ([2]; THP-1 chemotaxis): 50 fold
inhibition of 125I-MIP-1α binding [6]: moderate competitors
calcium mobilization [4, 11]: uniformly active
calcium mobilization [4, 8]: either not active or weakly active
B2: CCL23/CKβ8: recombinant full-length human chemokine CCL23 (22-120), 99-residue protein (protein, listed as Homo sapiens)
chain: RVTKDAETEFMMSKLPLENPVLLDRFHATSADCCISYTPRSIPCSLLESYFETNSECSKPGVIFLTKKGRRFCANPSDKQVQVCMRMLKLDTRIKTRKN
calcium mobilization [5]: strong calcium responses

EC50 ([2]; after cleavage by chymase or synovial fluid, read-out: EC50, cell migration): 0.05 to 0.06 nM
EC50 [2, 9]: 0.25 nM
EC50 [2, 10]: 0.05 nM
calcium mobilization [4, 11]: greater amount of calcium
calcium mobilization [4, 8]: little calcium mobilization
B3: CCL15/MIP-1δ: recombinant full-length human chemokine CCL15 (92aa) (protein, listed as Homo sapiens)
chain: QFINDAETELMMSKLPLENPVVLNSFHFAADCCTSYISQSIPCSLMKSYFETSSECSKPGVIFLTKKGRQVCAKPSGPGVQDCMKKLKPYSI
fold increase in chemokine potency after cleavage ([2]; THP-1 cell migration, cleavage by chymase or synovial fluid): approximately 1000 fold
calcium mobilization ([3]; digestions at 30-50 nM): induced calcium mobilization

calcium mobilization in the FPRL1 transfectant [1]: unable to induce calcium mobilization
inhibition of 125I-MIP-1α binding [6]: lowest binding activity
B4: CCL23β: alternatively spliced form of CCL23, 116-residue protein; recombinant, R&D Systems special order (protein, listed as Homo sapiens)
chain: MKVSVAALSCLMLVTALGSQARVTKDAETEFMMSKLPLENPVLLDMLWRRKIGPQMTLSHAAGFHATSADCCISYTPRSIPCSLLESYFETNSECSKPGVIFLTKKGRRFCANPSDKQVQVCMRMLKLDTRIKTRKN
calcium mobilization [5]: very weak responses

B5: CCL3/MIP-1α: traditional CCR1 ligand chemokine; unlabelled homologous competitor in binding (protein)
chain: ADTPTACCFSYTSRQIPQNFIADYFETSSQCSKPGVIFLTKRSRQVCADPSEEWVQKYVSDLELSA
calcium mobilization [3, 7]: not and only moderate calcium responses

Reference: US7572600B2, “Enzymatic activities in chemokine-mediated inflammation” (Chemocentryx, Inc., priority 2004, dated 2009)
